Reference: US20060257938A1, “Method of screening for drugs that block ligand binding to a lipid binding protein” (priority 2005, published 2006)
“And” between values parts separate entries of the source, which are not always exact repeats. Identical values can stand only once.

Experiments:
Format in all cases: binding
[1] = Probe fluorescence ratio response to stearic acid relative to ADIFAB2; settings: response relative to ADIFAB2
Summary of the method: (§1)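 Each fatty acid's response was expressed relative to ADIFAB2, the rI-FABP-L72A probe, as ΔR/ΔRreference. ΔR is the change in the background-corrected two-wavelength intensity ratio R=Fλ1/Fλ2 from its analyte-free baseline R0. Emission was read near about 420-480 nm for unbound and about 495-580 nm for FFA-bound probe.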

[2] = Probe fluorescence ratio response to linolenic acid relative to ADIFAB2; settings: response relative to ADIFAB2
Summary of the method: as §1

[3] = Probe fluorescence ratio response to linoleic acid relative to ADIFAB2; settings: response relative to ADIFAB2
Summary of the method: as §1

[4] = Probe fluorescence ratio response to oleic acid relative to ADIFAB2; settings: response relative to ADIFAB2
Summary of the method: as §1

[5] = Probe fluorescence ratio response to arachidonic acid relative to ADIFAB2; settings: arachidonic acid; response relative to ADIFAB2
Summary of the method: as §1

[6] = Probe fluorescence ratio response to palmitoleic acid relative to ADIFAB2; settings: response relative to ADIFAB2
From the text: In an alternate preferred embodiment, the protein is rI-FABP that has Ala substituted for Leu at position 72 (rI-FABP-L72A) with the resulting probe named ADIFAB2. […] Other probes useful in embodiments of the invention are shown in Tables 1-6 and are also described in U.S. application Ser. No. 11/085,792, filed Mar. 21, 2005 which is incorporated herein by reference. The indicated substitutions are with reference to the ADIFAB protein of SEQ ID NO: 2.
ADIFAB2 also has an altered spectral response, making it especially useful for measurements of FFAu in blood samples (Apple et al, Clinical Proteomics, (2004) 1:41-44, U.S. patent application Ser. No. 10/670,958). The wavelengths at the maximum intensities emitted by these fluorescently-labeled I-FABP's in the absence of FFA is about 420 to 480 nm. The emission wavelengths at the maximum intensities emitted by these fluorescently-labeled I-FABP's with FFA bound are between about 495 to 580 nm. Experiments typically involve measuring the fluorescence response within both emission maxima or at wavelengths for which the effect of interfering molecules such as hemoglobin can be eliminated as described in U.S. application Ser. No. 10/670958 and PCT/US2004/030521 and the calculation of the ratio ‘R’ of the two fluorescence intensities. The baseline value for this ratio, measured in the absence of analyte, is designated R0.
The intensity ratio (“R” value) is determined as follows. The ratio is calculated using the following formula: R=Fλ1/Fλ2 wherein, Fλ1 is the measured fluorescence intensities (intensity of sample with probe present minus intensity of sample without probe present) at wavelength 1 and Fλ2 is the measured fluorescence intensities (intensity of sample with probe present minus intensity of sample without probe present) at wavelength 2. Then, for a given probe, ΔR, the difference in R value between the measurement in the presence of the test compound (agent) and in the absence of the test compound (agent), is calculated as follows: ΔR=R+agent−R0 In some embodiments, the ΔR value may then be compared to some reference, for example, an agent with a known affinity for a given probe, by ΔR/ΔRreference. Measurements of fluorescence intensities are obtained using standard techniques.

[7] = Probe fluorescence ratio response to palmitic acid relative to ADIFAB2; settings: response relative to ADIFAB2
Summary of the method: as §1

| Molecule | DR/DR SA [1] | DR/DR LNA [2] | DR/DR LA [3] | DR/DR OA [4] | DR/DR AA [5] | DR/DR POA [6] | DR/DR PA [7] |
| --- | --- | --- | --- | --- | --- | --- | --- |
| 72G 73F 74E (protein, listed as Rattus norvegicus, PEPTIDE (1)...(131) wild-type rat intestinal fatty acid binding protein) AFDGTWKVDRNENYEKFMEKMGINVVKRKLGAHDNLKLTITQEGNKFTVKESSNFRNIDVVFELGVDFAYSGFEGTELTGTWTMEGNKLVGKFKRVDNGKELIAVREISGNELIQTYTYEGVEAKRIFKKE | 0.239 | 2.415 | 1.467 | 0.585 | 0.910 | 2.519 | 0.981 |
| 18I 31I 55M 73V 72A (protein, listed as Rattus norvegicus, PEPTIDE (1)...(131) wild-type rat intestinal fatty acid binding protein) AFDGTWKVDRNENYEKFIEKMGINVVKRKLIAHDNLKLTITQEGNKFTVKESSNMRNIDVVFELGVDFAYSAVDGTELTGTWTMEGNKLVGKFKRVDNGKELIAVREISGNELIQTYTYEGVEAKRIFKKE | 0.502 | 2.408 | 1.981 | 1.188 | 1.710 | 2.478 | 1.883 |
| 18I 31I 55M 73I 72A (protein, listed as Rattus norvegicus, PEPTIDE (1)...(131) wild-type rat intestinal fatty acid binding protein) AFDGTWKVDRNENYEKFIEKMGINVVKRKLIAHDNLKLTITQEGNKFTVKESSNMRNIDVVFELGVDFAYSAIDGTELTGTWTMEGNKLVGKFKRVDNGKELIAVREISGNELIQTYTYEGVEAKRIFKKE | 0.382 | 1.803 | 1.516 | 0.822 | 1.354 | 1.903 | 1.546 |
| 18V 31A 73F 72A (protein, listed as Rattus norvegicus, PEPTIDE (1)...(131) wild-type rat intestinal fatty acid binding protein) AFDGTWKVDRNENYEKFVEKMGINVVKRKLAAHDNLKLTITQEGNKFTVKESSNFRNIDVVFELGVDFAYSAFDGTELTGTWTMEGNKLVGKFKRVDNGKELIAVREISGNELIQTYTYEGVEAKRIFKKE | 0.375 | 2.036 | 1.527 | 0.828 | 1.142 | 2.677 | 1.510 |
| 18I 31A 73F 72A (protein, listed as Rattus norvegicus, PEPTIDE (1)...(131) wild-type rat intestinal fatty acid binding protein) AFDGTWKVDRNENYEKFIEKMGINVVKRKLAAHDNLKLTITQEGNKFTVKESSNFRNIDVVFELGVDFAYSAFDGTELTGTWTMEGNKLVGKFKRVDNGKELIAVREISGNELIQTYTYEGVEAKRIFKKE | 0.404 and 0.406 | 2.318 and 2.203 | 1.732 and 1.652 | 0.950 and 0.995 | 1.314 and 1.296 | 2.730 and 2.522 | 1.515 and 1.372 |
| 18V 31A 55W 73W 72A (protein, listed as Rattus norvegicus, PEPTIDE (1)...(131) wild-type rat intestinal fatty acid binding protein) AFDGTWKVDRNENYEKFVEKMGINVVKRKLAAHDNLKLTITQEGNKFTVKESSNWRNIDVVFELGVDFAYSAWDGTELTGTWTMEGNKLVGKFKRVDNGKELIAVREISGNELIQTYTYEGVEAKRIFKKE | 0.392 | 1.887 | 1.555 | 0.913 | 1.130 | 2.042 | 1.505 |
| 14Q 18L 31A 73W 117V 72A (protein, listed as Rattus norvegicus, PEPTIDE (1)...(131) wild-type rat intestinal fatty acid binding protein) AFDGTWKVDRNENQEKFLEKMGINVVKRKLAAHDNLKLTITQEGNKFTVKESSNFRNIDVVFELGVDFAYSAWDGTELTGTWTMEGNKLVGKFKRVDNGKELIAVREISGNELIQTVTYEGVEAKRIFKKE | 0.384 | 1.958 | 1.942 | 1.478 | 1.558 | 2.008 | 1.084 |
| 18I 31V 73G 72A (protein, listed as Rattus norvegicus, PEPTIDE (1)...(131) wild-type rat intestinal fatty acid binding protein) AFDGTWKVDRNENYEKFIEKMGINVVKRKLVAHDNLKLTITQEGNKFTVKESSNFRNIDVVFELGVDFAYSAGDGTELTGTWTMEGNKLVGKFKRVDNGKELIAVREISGNELIQTYTYEGVEAKRIFKKE | 0.543 | 1.946 | 1.715 | 0.968 | 1.348 | 2.122 | 1.630 |
| 18I 31Y 73V 72A (protein, listed as Rattus norvegicus, PEPTIDE (1)...(131) wild-type rat intestinal fatty acid binding protein) AFDGTWKVDRNENYEKFIEKMGINVVKRKLYAHDNLKLTITQEGNKFTVKESSNFRNIDVVFELGVDFAYSAVDGTELTGTWTMEGNKLVGKFKRVDNGKELIAVREISGNELIQTYTYEGVEAKRIFKKE | 1.047 | 2.176 | 2.242 | 1.818 | 1.801 | 2.088 | 1.615 |
| 72V 73W 74N (protein, listed as Rattus norvegicus, PEPTIDE (1)...(131) wild-type rat intestinal fatty acid binding protein) AFDGTWKVDRNENYEKFMEKMGINVVKRKLGAHDNLKLTITQEGNKFTVKESSNFRNIDVVFELGVDFAYSVWNGTELTGTWTMEGNKLVGKFKRVDNGKELIAVREISGNELIQTYTYEGVEAKRIFKKE | 0.468 | 2.384 | 1.726 | 1.146 | 1.191 | 3.507 | 2.229 |
| 72V 73W 74S (protein, listed as Rattus norvegicus, PEPTIDE (1)...(131) wild-type rat intestinal fatty acid binding protein) AFDGTWKVDRNENYEKFMEKMGINVVKRKLGAHDNLKLTITQEGNKFTVKESSNFRNIDVVFELGVDFAYSVWSGTELTGTWTMEGNKLVGKFKRVDNGKELIAVREISGNELIQTYTYEGVEAKRIFKKE | 0.574 | 2.044 | 1.819 | 1.477 | 1.424 | 2.662 | 1.789 |
| 72A 73W 74A (protein, listed as Rattus norvegicus, PEPTIDE (1)...(131) wild-type rat intestinal fatty acid binding protein) AFDGTWKVDRNENYEKFMEKMGINVVKRKLGAHDNLKLTITQEGNKFTVKESSNFRNIDVVFELGVDFAYSAWAGTELTGTWTMEGNKLVGKFKRVDNGKELIAVREISGNELIQTYTYEGVEAKRIFKKE | 0.330 | 2.093 | 1.466 | 0.933 | 0.892 | 3.016 | 1.942 |
